# From article PMC11480844 (2024)
# B1: H2-Kb / Ed39 (parent complex)
# chain 1: GEQVEQRPPHLSVREGDSAVIICTYTDPNSYYFFWYKQEPGAGLQLLMKVFSSTEINEGQGFTVLLNKKDKQLSLNLTAAHPGDSAVYFCATMSNYNVLYFGSGTKLTVEP
# chain 2: GALVYQYPRRTICKSGTSMRMECQAVGFQATSVAWYRQSPQKTFELIALSTVNSAIKYEQNFTQEKFPISHPNLSFSSMTVLNAYLEDRGLYLCGARDGSYEQYFGPGTRLTVL
# chain 3: not shown
# chain 4: IQKTPQIQVYSRHPPENGKPNILNCYVTQFHPPHIEIQMLKNGKKIPKVEMSDMSFSKDWSFYILAHTEFTPTETDTYACRVKHDSMAEPKTVYWDRDM
# chain 5: SIINFEKL
# B2: H2-Kb / Ed33 (parent complex)
# chain 1: SQLAEENSWALSVHEGESVTVNCSYKTSITALQWYRQKSGKGPAQLILIRSNEREKRNGRLRATLDTSSQSSSLSITATRCEDTAVYFCATDHNNAGAKLTFGGGTRLTVRP
# chain 2: DAGVTQTPRHEVAEKGQTIILKCEPVSGHNDLFWYRQTKIQGLELLSYFRSKSLMEDGGAFKDRFKAEMLNSSFSTLKIQPTEPKDSAVYLCASSLYTNQAPLFGEGTRLSVL
# chain 3: not shown
# chain 4: B1 chain 4
# chain 5: SIINFEKL
# Variants of: B1
# Assay: % of reporter cells activated (NFAT-GFP), raw
# Also: test concentration or dose not given here.
row,Variant,ratio to parent
1,chain 5 K7T,0.359
2,chain 5 I2P,0.58
3,chain 5 E6K,0.308
4,chain 5 F5G,0.454
5,chain 5 S1R,0.0616
6,chain 5 K7G,0.0989
7,chain 5 L8H,0.788
8,chain 5 K7E,0.00639
9,chain 5 K7N,0.0309
10,chain 5 S1Y,0.351
11,chain 5 F5C,0.689
12,chain 5 I2L,1.03
13,chain 5 I3Q,0.3
14,chain 5 I2C,0.926
15,chain 5 N4I,0.00838
16,chain 5 N4Q,0.00338
17,chain 5 I3W,0.472
18,chain 5 L8C,0.483

# Variants of: B2
# Assay: % of reporter cells activated (NFAT-GFP), raw
row,Variant,ratio to parent
1,chain 5 K7V,0.427
2,chain 5 E6Y,0.182
3,chain 5 L8K,0.941
4,chain 5 K7P,0.372
5,chain 5 K7M,0.0938
6,chain 5 E6P,0.0303
7,chain 5 K7I,0.018
8,chain 5 L8P,0.846
9,chain 5 E6W,0.0137
10,chain 5 S1D,1.05
11,chain 5 S1N,0.173
12,chain 5 E6R,0.00434
13,chain 5 I2N,1.01
14,chain 5 K7W,0.74
15,chain 5 K7F,0.0757
16,chain 5 F5Q,1.01
17,chain 5 N4C,0.0904
18,chain 5 N4F,0.0234
19,chain 5 S1H,0.634
20,chain 5 S1G,0.48
21,chain 5 N4P,0.000438
22,chain 5 I2T,0.981

row,Variant,ratio to parent
1,chain 5 E6V,0.0218
2,chain 5 N4D,0.135
3,chain 5 E6H,0.223
4,chain 5 E6N,0.00413
5,chain 5 L8H,0.968
6,chain 5 F5N,0.876
7,chain 5 K7S,0.754
8,chain 5 I3H,0.895
9,chain 5 L8W,0.881
10,chain 5 K7Y,0.157
11,chain 5 E6C,0.0452
12,chain 5 F5G,0.844
13,chain 5 E6F,0.101
14,chain 5 I2L,1.05
15,chain 5 F5R,0.982
16,chain 5 N4L,0.428
17,chain 5 I2V,1.04
18,chain 5 K7A,0.227
19,chain 5 K7Q,0.0157
20,chain 5 L8N,0.905
21,chain 5 F5C,1.05
22,chain 5 I3M,1.07

row,Variant,ratio to parent
1,chain 5 I2R,0.807
2,chain 5 F5E,0.625
3,chain 5 I3T,1.04
4,chain 5 E6M,0.0967
5,chain 5 I2F,0.774
6,chain 5 L8D,0.731
7,chain 5 I2D,0.897
8,chain 5 S1W,0.182
9,chain 5 I3D,0.634
10,chain 5 S1K,0.121
11,chain 5 L8Y,1.01
12,chain 5 F5K,0.862
13,chain 5 S1Q,0.91
14,chain 5 N4H,0.134
15,chain 5 I3G,1.03
16,chain 5 N4T,0.0148
17,chain 5 S1I,0.0715
18,chain 5 I3N,0.932
19,chain 5 F5T,1.08
20,chain 5 S1M,0.675
21,chain 5 F5I,0.655
22,chain 5 I3Q,1.08

row,Variant,ratio to parent
1,chain 5 I3S,1.01
2,chain 5 S1L,0.0492
3,chain 5 I2Q,0.918
4,chain 5 I2P,1.03
5,chain 5 L8R,0.873
6,chain 5 F5H,0.911
7,chain 5 K7N,0.216
8,chain 5 N4Q,0.00449
9,chain 5 I3F,0.0275
10,chain 5 L8F,0.941
11,chain 5 S1R,0.392
12,chain 5 L8E,0.8
13,chain 5 L8C,0.824
14,chain 5 E6D,0.113
15,chain 5 E6I,0.00689
16,chain 5 F5W,0.968
17,chain 5 K7T,0.0585
18,chain 5 L8Q,0.9
19,chain 5 N4E,0.246
20,chain 5 I3V,0.933
21,chain 5 I2G,0.456
22,chain 5 K7R,0.318

row,Variant,ratio to parent
1,chain 5 I3E,1.06
2,chain 5 F5A,1.1
3,chain 5 E6T,0.0145
4,chain 5 N4S,0.00273
5,chain 5 K7G,0.204
6,chain 5 I2H,0.835
7,chain 5 I3R,0.581
8,chain 5 L8I,0.988
9,chain 5 F5V,0.917
10,chain 5 I2C,0.918
11,chain 5 I3K,0.656
12,chain 5 I3P,1.09
13,chain 5 L8S,0.84
14,chain 5 I2E,1.03
15,chain 5 I3W,0.836
16,chain 5 N4A,0.00624
17,chain 5 K7H,0.0435
18,chain 5 F5S,0.958
19,chain 5 N4K,0.41
20,chain 5 K7E,0.0117
21,chain 5 I3Y,0.0463
22,chain 5 I2K,1.01

row,Variant,ratio to parent
1,chain 5 S1V,0.349
2,chain 5 S1C,0.295
3,chain 5 S1P,0.115
4,chain 5 F5P,0.988
5,chain 5 L8M,0.936
6,chain 5 N4G,0.294
7,chain 5 S1E,1.02
8,chain 5 K7C,0.063
9,chain 5 S1F,0.3
10,chain 5 I2A,0.885
11,chain 5 N4W,0.0116
12,chain 5 S1Y,0.414
13,chain 5 E6A,0.055
14,chain 5 E6K,0.425
15,chain 5 N4R,0.168
16,chain 5 F5D,0.85
17,chain 5 I2Y,0.715
18,chain 5 S1A,0.461
19,chain 5 L8A,0.913
20,chain 5 E6Q,0.218
21,chain 5 I3L,0.984
22,chain 5 E6G,0.513
